From patent US20240092867A1 (UNIVERSITY OF CHICAGO, published 2024) come the findings set out here.

In general, Kd refers to the constant that tells how readily two partners part at equilibrium. Low readings indicate higher affinity, high ones lower affinity.

Assay [1] concerns the target T1, placental growth factor (PlGF)-2 (human, UniProt P49763-3 19-170).
T1 construct: mature; Purchased in mature form
T1 sequence (looked up): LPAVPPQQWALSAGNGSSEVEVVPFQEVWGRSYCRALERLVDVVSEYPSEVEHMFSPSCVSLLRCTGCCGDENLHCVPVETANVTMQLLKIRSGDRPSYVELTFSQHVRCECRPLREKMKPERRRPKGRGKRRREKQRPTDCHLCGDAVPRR
Put plainly: ELISA, peptide coated, GF 1 µg/mL. As for the experimental part:
(§1) (A) The location of laminin-derived peptides in the LG domain of laminin α3, α4, and α5 chains. (B-F) Affinity of heparin and GFs against chemically synthesized peptides derived from the LG domain of laminin α3, α4, and α5 chains. ELISA plates were coated with 10 μg/mL laminin peptide and further incubated with (B) biotinylated heparin, (C) VEGF-A165 and VEGF-A121, (D) PlGF-2 and PlGF-1, (E) PDGF-BB, or (F) FGF-2. Concentrations were 1 μg/mL for GFs and 10 μg/mL for heparin. Bound heparin was detected with streptavidin, and bound GFs with a specific antibody for each GF (n=4, mean±SEM). Statistical analyses were done using the Mann-Whitney U test by comparing the signals obtained from the laminin peptide- and the BSA-coated wells. *p<0.05, **p<0.01.
(§2) ELISA tests were performed as described above. […] 1 μg/mL of BSA served as non-binding protein control. After blocking with 2% BSA PBS-0.05% Tween 20 (PBS-T) solution, 1 μg/mL of the recombinant human proteins (VEGF-A121, VEGF-A165, PlGF-1, PlGF-2, PDGF-BB or FGF-2) or 10 μg/mL of biotinylated heparin (Sigma-Aldrich) were added. Bound GF was detected with biotinylated antibodies for human VEGF, PlGF, PDGF-BB, or FGF-2 (R&D Systems). The antibodies were detected by streptavidin-HRP (R&D Systems).
(An ELISA detects its analyte on a solid surface through an enzyme-linked reagent.)

Assay [2] has as its target T2, vascular endothelial growth factor (VEGF)-A165 (human, UniProt P15692-4 27-191).
T2 construct: mature; Purchased in mature form, not glycosylated
Put plainly: ELISA, peptide coated, GF 1 µg/mL. As for the experimental part:
as §1, §2

Assay [3] addresses T3, fibroblast growth factor (FGF)-2 (human, UniProt P09038 143-288).
T3 construct: mature; Purchased in mature form
Put plainly: ELISA; peptide coated (10 µg/mL, legend paragraph 53), 1 µg/mL FGF-2 in solution, BSA-coated wells as control [panel F]. Here is the method:
as §1, §2

For assay [4], the target named is T4, vascular endothelial growth factor (VEGF)-A121 (human, UniProt P15692-9 27-147).
T4 construct: mature; Purchased in mature form, not glycosylated
T4 sequence (looked up): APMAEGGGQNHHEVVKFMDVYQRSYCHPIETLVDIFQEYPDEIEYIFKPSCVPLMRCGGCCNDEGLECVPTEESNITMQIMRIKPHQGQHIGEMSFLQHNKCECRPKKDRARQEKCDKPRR
Kind of assay: ELISA, peptide coated. Here is the method: as §1, §2

For assay [5], the target named is T5, placental growth factor (PlGF)-1 (human, UniProt P49763-2 19-149).
T5 construct: mature; Purchased in mature form
T5 sequence (looked up): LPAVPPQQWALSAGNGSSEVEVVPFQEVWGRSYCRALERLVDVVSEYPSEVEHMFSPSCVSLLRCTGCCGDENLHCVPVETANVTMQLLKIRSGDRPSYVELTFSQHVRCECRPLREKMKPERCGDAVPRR
Put plainly: ELISA, peptide coated. As for the experimental part: as §1, §2

For assay [6], the target named is T6, platelet-derived growth factor (PDGF)-BB (human, UniProt P01127 82-190).
T6 construct: mature; Purchased in mature form
T6 sequence (P01127 82-190): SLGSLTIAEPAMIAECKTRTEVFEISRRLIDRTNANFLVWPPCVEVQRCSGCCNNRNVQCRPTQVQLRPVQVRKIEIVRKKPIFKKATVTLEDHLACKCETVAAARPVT
Put plainly: ELISA; peptide coated (10 µg/mL, legend paragraph 53), GF in solution, BSA-coated wells as control [panel E]. As for the experimental part:
as §1, §2

Assay [7] has as its target T7, recombinant human syndecan-4 (human, UniProt P31431 19-145, limits assumed).
T7 construct: Histidine tag of unstated position and length
T7 sequence (looked up): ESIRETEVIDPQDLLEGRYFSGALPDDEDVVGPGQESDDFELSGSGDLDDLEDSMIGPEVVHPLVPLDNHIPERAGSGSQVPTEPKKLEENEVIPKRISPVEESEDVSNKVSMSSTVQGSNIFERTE
Put plainly: ELISA, peptide coated, syndecan 1 µg/mL, anti-His detection. Here is the method: (§3) ELISA tests were performed as described above. In brief, ELISA plates were coated with 1 μg/mL laminin peptide (sequences are described in Table 1, chemically synthesized by Genscript) in PBS for 2 hrs at 37° C. 1 μg/mL of BSA served as non-binding protein control. After blocking with 2% BSA PBS-T solution, 1 μg/mL of the recombinant human syndecan-1, syndecan-2, syndecan-3, syndecan-4 (all syndecan proteins are histidine-tagged; SinoBiological) were added. Bound GF was detected with anti-histidine tag antibody (1:1000 dilution, BioLegend).

Assay [8] deals with T8, recombinant human syndecan-2 (human, UniProt P34741 19-144, limits assumed).
T8 construct: Histidine tag of unstated position and length
T8 sequence (P34741 19-144 limits assumed): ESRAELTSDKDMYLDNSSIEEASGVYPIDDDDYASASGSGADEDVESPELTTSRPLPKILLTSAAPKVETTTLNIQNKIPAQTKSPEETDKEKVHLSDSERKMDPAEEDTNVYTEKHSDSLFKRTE
The assay is described as above. Here is the method:
as §3

Assay [9] addresses T9, recombinant human syndecan-1 (human, UniProt P18827 23-254, limits assumed).
T9 construct: Histidine tag of unstated position and length
T9 sequence (looked up): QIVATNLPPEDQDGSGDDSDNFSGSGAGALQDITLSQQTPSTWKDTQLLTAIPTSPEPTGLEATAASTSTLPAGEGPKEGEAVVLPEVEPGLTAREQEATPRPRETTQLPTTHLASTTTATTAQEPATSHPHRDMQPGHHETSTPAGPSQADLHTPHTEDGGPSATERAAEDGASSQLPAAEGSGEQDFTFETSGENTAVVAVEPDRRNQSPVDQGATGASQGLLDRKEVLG
The description is as above. As for the experimental part:
as §3

The target in a further assay is T10, recombinant human BMP-2 (human, UniProt P12643 283-396).
T10 construct: also called rhBMP-2
T10 sequence (P12643 283-396 limits assumed): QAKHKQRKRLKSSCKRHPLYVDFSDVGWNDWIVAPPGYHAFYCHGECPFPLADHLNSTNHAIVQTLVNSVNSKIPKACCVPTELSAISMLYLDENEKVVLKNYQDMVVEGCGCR
Kind of assay: ELISA, rhBMP-2 coated 50 nM, binder 50 nM.

For another assay, the target named is T11, bovine type I collagen (bovine, UniProt P02453 178-1191; P02465 89-1102).
T11 construct: PureCol, Advanced BioMatrix; coated on the plate; also called collagen I; PureCol
T11 sequence (P02453 178-1191, chain 1 of 2): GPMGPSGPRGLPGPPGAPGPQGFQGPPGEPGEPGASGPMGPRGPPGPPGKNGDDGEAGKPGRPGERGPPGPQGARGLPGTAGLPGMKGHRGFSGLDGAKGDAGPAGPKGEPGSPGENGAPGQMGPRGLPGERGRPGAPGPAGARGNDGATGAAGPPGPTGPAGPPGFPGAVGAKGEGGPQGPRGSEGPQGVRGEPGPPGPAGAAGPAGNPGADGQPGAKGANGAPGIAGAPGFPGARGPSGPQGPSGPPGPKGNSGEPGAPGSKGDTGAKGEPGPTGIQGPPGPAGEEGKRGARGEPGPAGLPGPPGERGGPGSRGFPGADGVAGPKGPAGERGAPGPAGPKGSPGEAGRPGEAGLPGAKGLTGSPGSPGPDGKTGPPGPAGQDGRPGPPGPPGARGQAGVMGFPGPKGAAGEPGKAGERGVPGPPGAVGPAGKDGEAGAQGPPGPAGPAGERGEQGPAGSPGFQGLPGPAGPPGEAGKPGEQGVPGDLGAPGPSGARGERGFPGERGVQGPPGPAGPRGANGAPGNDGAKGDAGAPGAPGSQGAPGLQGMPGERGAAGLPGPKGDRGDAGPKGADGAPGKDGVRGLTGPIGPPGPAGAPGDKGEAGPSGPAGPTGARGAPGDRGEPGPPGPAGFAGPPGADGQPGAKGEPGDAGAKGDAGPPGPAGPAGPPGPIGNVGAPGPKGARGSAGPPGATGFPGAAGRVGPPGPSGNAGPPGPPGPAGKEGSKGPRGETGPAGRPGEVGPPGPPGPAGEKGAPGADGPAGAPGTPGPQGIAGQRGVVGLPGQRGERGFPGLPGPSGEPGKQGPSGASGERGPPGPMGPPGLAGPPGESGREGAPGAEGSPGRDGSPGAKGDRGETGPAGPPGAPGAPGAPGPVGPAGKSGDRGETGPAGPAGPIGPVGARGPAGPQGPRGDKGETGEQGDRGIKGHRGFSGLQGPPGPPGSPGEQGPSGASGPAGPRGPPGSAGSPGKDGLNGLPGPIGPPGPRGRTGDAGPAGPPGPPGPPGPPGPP
T11 sequence (P02465 89-1102, chain 2 of 2): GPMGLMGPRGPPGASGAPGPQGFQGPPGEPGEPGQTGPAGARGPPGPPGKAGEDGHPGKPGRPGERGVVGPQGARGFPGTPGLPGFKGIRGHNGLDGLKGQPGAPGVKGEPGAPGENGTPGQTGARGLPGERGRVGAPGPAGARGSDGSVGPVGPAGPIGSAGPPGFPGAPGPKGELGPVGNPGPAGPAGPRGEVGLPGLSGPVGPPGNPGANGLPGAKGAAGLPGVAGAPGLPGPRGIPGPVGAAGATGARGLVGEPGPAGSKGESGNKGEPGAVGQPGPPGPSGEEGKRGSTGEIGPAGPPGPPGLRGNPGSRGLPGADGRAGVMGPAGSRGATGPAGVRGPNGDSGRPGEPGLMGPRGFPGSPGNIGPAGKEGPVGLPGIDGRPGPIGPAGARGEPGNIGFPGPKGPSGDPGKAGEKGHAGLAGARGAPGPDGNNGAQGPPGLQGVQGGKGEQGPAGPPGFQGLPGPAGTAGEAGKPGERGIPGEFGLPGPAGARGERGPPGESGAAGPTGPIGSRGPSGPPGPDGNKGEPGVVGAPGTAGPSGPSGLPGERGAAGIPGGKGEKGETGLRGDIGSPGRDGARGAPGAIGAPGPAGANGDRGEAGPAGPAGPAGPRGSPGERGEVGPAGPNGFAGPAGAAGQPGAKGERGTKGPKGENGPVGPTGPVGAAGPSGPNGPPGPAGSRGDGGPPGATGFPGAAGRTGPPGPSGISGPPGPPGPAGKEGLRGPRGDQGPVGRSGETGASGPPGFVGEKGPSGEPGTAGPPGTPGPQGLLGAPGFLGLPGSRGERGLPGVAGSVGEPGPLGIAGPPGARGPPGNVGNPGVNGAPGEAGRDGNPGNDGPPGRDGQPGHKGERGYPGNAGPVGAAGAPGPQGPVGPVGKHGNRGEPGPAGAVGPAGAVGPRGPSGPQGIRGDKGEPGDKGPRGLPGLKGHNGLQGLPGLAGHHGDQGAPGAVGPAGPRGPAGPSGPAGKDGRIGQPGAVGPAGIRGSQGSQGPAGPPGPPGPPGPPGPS
Kind of assay: ELISA, collagen I coated, 0.01-30 nM binder. As for the experimental part: ELISA plates (NUNC MaxiSorp, ThermoFisher Scientific) were coated overnight with 10 μg/mL of bovine type I collagen (PureCol, Advanced BioMatrix, San Diego CA, USA) at room temperature. The plate was further blocked using 2% bovine serum albumine (BSA) for 2 h at room temperature. […] The plate was washed thrice in PBST, and an horseradish peroxidase-conjugated anti-human Fab antibody (Jackson ImmunoResearch,) was used to detect bound FabCol variants. […] Absorbance at 450 nm was read using […], and corrected using the absorbance at 570 nm. Curve fits and dissociation constant KD were computed using Prism (GraphPad Software Inc., USA).

For assay [10], the target named is T6, platelet-derived growth factor (PDGF)-BB. Kind of assay: ELISA; peptide coated (10 µg/mL, legend paragraph 53), 1 µg/mL PDGF-BB in solution, BSA-coated wells as control [panel E]. As for the experimental part:
as §1, §2

Assay [11] has as its target T3, fibroblast growth factor (FGF)-2. Kind of assay: ELISA, peptide coated, GF 1 µg/mL. Here is the method:
as §1, §2

The target in assay [12] is T1, placental growth factor (PlGF)-2. Kind of assay: ELISA; peptide coated (10 µg/mL, legend paragraph 53), 1 µg/mL PlGF-2 in solution, BSA-coated wells as control [panel D]. Here is the method: as §1, §2
Assay [13] has as its target T4, vascular endothelial growth factor …. Kind of assay: ELISA; peptides and vWF forms coated at 50 nM, VEGF-A in solution, detected with anti-VEGF-A antibody [panel D]. Here is the method: (A) Diagram of exon sequence of VEGF-A showing inclusion (+) or exclusion (−) of heparin binding domain exons for the different VEGF-A isoforms. […] Bound VEGF-A was detected using a specific antibody for VEGF-A (n=4, mean±SD). Statistical comparisons were done using ANOVA with Tukey's test compared with BSA control. **p<0.01.
ELISA was performed as previously reported1. […] After blocking with 2% BSA solution containing PBS-T, 1 μg/mL of recombinant human VEGF-A121 (PeproTech), recombinant human VEGF-A145 (R & D Systems), or recombinant human VEGF-A165 (PeproTech) was added. Bound VEGF-A was detected with 1 μg/mL of mouse anti-human VEGF-A antibody (clone: 26503, R & D systems). After 60 min of incubation, horseradish peroxidase (HRP) conjugated goat anti-mouse antibody (1:2000 dilution, Dako) was added and incubated for another 60 min. Color development and the absorbance measurement were done as described above.

For assay [14], the target named is T2, vascular endothelial growth factor …. Kind of assay: cell-based or functional assay.
Assay [15] concerns the target T6, platelet-derived growth factor (PDGF)-BB. Put plainly: cell-based or functional assay.

T3 sequence (P09038 143-288): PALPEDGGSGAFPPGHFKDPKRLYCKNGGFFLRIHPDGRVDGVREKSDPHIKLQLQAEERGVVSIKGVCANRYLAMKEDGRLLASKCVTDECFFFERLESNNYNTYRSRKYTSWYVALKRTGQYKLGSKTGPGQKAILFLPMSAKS
Protocol for recombinant human BMP-2: ELISA plates (NUNC MaxiSorp) were coated with 50 nM of recombinant human BMP-2 (CHO produced, R&D Systems, Minneapolis MN, USA) overnight at room temperature.

Consider TPGLGPRGLQATARKASRRSRQPARHPACML (Chemically synthesized (Genscript)) [laminin α5 3300-3330 peptide (Linker)], for which the binding result is on record as “binds” in assay [1]; “binds” in [2]; “binds” in assay [3]; “no binding (tested: 1 µg/mL)” in assay [4]; “no binding (tested: 1 µg/mL)” in assay [5]; “no binding (tested: 1 µg/mL PDGF-BB (single concentration))” in assay [6]. Moreover, the binding result in assay [7], in assay [8] and in [9] was “binds” in each case.

B1: FabCol-p(FgHBD) recombinant fusion protein (Fab)
light: EIVLTQSPGTLSLSPGERATLSCRASQSVSSSYLAWYQQKPGQAPRLLIYGASSRATGIPDRFSGSGSGTDFTLTISRLEPEDFAVYYCQQAIGFPQTFGQGTKVEIKRTVAAPSVFIFPPSDEQLKSGTASVVCLLNNFYPREAKVQWKVDNALQSGNSQESVTEQDSKDSTYSLSSTLTLSKADYEKHKVYACEVTHQGLSSPVTKSFNRGECGAGGGSGGGHRPLDKKREEAPSLRPAPPPISGGGYRARPAKAAATQKKVERKAPDAGGGSGGGSGGGHRPLDKKREEAPSLRPAPPPISGGGYRARPAKAAATQKKVERKAPDAGGGSGGGSGGGHRPLDKKREEAPSLRPAPPPISGGGYRARPAKAAATQKKVERKAPDAGGGT
heavy: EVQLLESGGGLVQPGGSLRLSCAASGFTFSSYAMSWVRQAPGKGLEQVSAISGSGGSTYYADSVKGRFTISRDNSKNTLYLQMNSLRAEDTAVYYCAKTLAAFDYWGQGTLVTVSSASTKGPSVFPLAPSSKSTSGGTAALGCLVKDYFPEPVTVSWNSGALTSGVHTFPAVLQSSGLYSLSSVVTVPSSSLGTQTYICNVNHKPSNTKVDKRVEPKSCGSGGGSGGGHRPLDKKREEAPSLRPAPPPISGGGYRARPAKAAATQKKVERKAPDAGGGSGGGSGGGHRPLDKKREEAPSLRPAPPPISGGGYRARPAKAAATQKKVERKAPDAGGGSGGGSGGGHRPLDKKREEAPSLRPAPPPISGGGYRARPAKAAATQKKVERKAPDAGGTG
notes: Three repeats of FgHBD at the C-termini of both Fab chains
B1: the binding result with recombinant human BMP-2 is on record as “binds”. In addition, in the assay with bovine type I collagen, the dissociation constant (Kd) is ~1.7 nM.
As to PPFLMLLKGSTRFNKTKTFR (Chemically synthesized (Genscript)) [laminin α3 2932-2951 peptide (Linker)], the binding result is “binds” in assay [10]; “binds” in [11]; “binds” in assay [2]; “binds” in assay [12]; “no binding (tested: 1 µg/mL)” in assay [4]; “no binding (tested: 1 µg/mL)” in assay [5].

B2: vWF A1 HBD (24 residues, C-terminal Cys) (peptide)
peptide: YIGLKDRKRPSELRRIASQVKYAC
notes: also the peptide coupled into the PEG matrix; also called vWF HBD-Cys; vWF A1 HBD peptide
B2: the binding result in [13] is on record as “no binding (tested: 1 µg/mL VEGF-A121 (single concentration))”.

B3: FabCol-FgHBD conjugates (Fab)
light: EIVLTQSPGTLSLSPGERATLSCRASQSVSSSYLAWYQQKPGQAPRLLIYGASSRATGIPDRFSGSGSGTDFTLTISRLEPEDFAVYYCQQAIGFPQTFGQGTKVEIKRTVAAPSVFIFPPSDEQLKSGTASVVCLLNNFYPREAKVQWKVDNALQSGNSQESVTEQDSKDSTYSLSSTLTLSKADYEKHKVYACEVTHQGLSSPVTKSFNRGEC
heavy: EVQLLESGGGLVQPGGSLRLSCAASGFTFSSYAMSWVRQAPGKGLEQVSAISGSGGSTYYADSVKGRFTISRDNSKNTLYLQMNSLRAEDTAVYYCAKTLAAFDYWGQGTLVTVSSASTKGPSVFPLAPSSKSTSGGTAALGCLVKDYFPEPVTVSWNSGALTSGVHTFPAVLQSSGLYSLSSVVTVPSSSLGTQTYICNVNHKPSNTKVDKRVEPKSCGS
peptide: GCGGSLRPAPPPISGGGYRARPAKAAATQKKVERKAPDA
modifications: chemically conjugated to FabCol with sulfo-SMCC crosslinker; multiple copies per FabCol (shift of about 35 kDa)
notes: Chemical conjugate
In the case of B3, the Kd with bovine type I collagen is ~2.8 nM.
Take NQEQVSPLRLVFALGTDGKKLRIKSKEKCNDGK [α2PI1-8-α3 3043-3067]: the “cumulative release of GF from peptide-functionalized fibrin matrix after 5 days” value in assay [14] came out at 25%; in assay [15] it was 45%.
Taken in the same sequence, the figures for NQEQVSPLRQRSRPGRWHKVSVRWEKNR [α2PI1-8-α5 3417-3436] were 31% and 47%.
